Patent publication US20240117073A1, “METHODS OF TREATING NEOPLASTIC ASTROCYTOMA” (Ludwig Institute for Cancer Research Ltd., priority 2009, published 2024)
Entries after “also recorded” stand apart in the source; their conditions may differ. Where no end group is shown, it is not given here.

Key:
[1] = target: EGFR peptide 287-302 (806 peptide epitope) (human); assay: BIAcore, peptide 287-302 immobilised by Pms-Ser coupling
[2] = target: EGFR peptide 287-302 (806 peptide epitope) (human); assay: BIAcore, peptide 287-302 immobilised by amine coupling
[3] = target: EGFR peptide 287-302 (806 peptide epitope) (human); assay: BIAcore, peptide 287-302 immobilised by thiol coupling
EGFR of A431 cells = EGFR of A431 cells (Homo sapiens, UniProt P00533); assay: ELISA of 806 reactivity in lysate of AG1478 treated cells; type: cell-based; conditions: increasing amounts of AG1478 (0.5 μM and 5 μM)
A431 xenografts = assay: combination therapy with AG1478, preventative model; type: in vivo, mice; conditions: 0.1 mg mAb806; 400 μg AG1478
Experimental: AG1478 (4-(3-Chloroanilino)-6,7-dimethoxyquinazoline) is a potent and selective inhibitor of the EGFR kinase versus HER2-neu and platelet-derived growth factor receptor kinase (Calbiochem Cat. No. 658552). […] The results are illustrated in FIG. 12. […] 400 μg AG1478 was administered at 0, 2, 4, 7, 9, and 11 days post xenograft.

DU145 cells = assay: FACS binding to cell lines; type: cell-based, human
From the text: Clearly, mAb806 and mAb175 can recognize only a small proportion of the EGFR on cells in the presence of an autocrine stimulation loop.

EGFR fragments = assay: Western blot of GH/EGFR fragment fusion proteins; type: binding, human
Experimental: The day prior to transfection with these fragments, human 293T embryonic-kidney fibroblasts were seeded at 8×10^5 per well in 6-well tissue culture plates containing 2 ml of media. Cells were transfected with 3-4 μg of plasmid DNA complexed with Lipofectamine™ 2000 (Invitrogen) according to the manufacturer's instructions. […] Parallel membranes were probed overnight with mAb 9B11 (1:5000, Cell Signaling Technology, Danvers, Massachusetts) to detect the c-myc epitope. Membranes were washed in TBST, and incubated in blocking buffer containing horseradish peroxidase-conjugated rabbit anti-mouse IgG (Biorad) at a 1:5000 dilution for 2 h at room temperature. Blots were then washed in TBST, and developed using autoradiographic film following incubation with Western Pico Chemiluminescent Substrate (Pierce, Rockford, Illinois).
(§1) Expression of EGFR proteins on the yeast cell surface was performed as previously described (Johns et al., 2004).

[4] = tested on: normal human liver sections; assay: immunohistochemistry with mAb175
Experimental: (§2) Bound antibody was detected using the Dako Envision™+HRP detection system as per manufacturer's instructions. Sections were finally rinsed with water, counterstained with hematoxylin and mounted.
The U87MG cell line only expresses modest levels of the wild-type EGFR (FIG. 66A) and has no detectable EGFR autocrine loop.

xenograft U87MG (native) = assay: immunohistochemistry of xenograft sections; set-up: species or system human
Experimental: (§3) Xenografts were excised and bisected. One half was fixed in 10% formalin/PBS before being embedded in paraffin. Four micron sections were then cut and stained with haematoxylin and eosin (H&E) for routine histological examination. The other half was embedded in Tissue Tek® OCT compound (Sakura Finetek, Torrance, CA), frozen in liquid nitrogen and stored at −80° C. Thin (5 micron) cryostat sections were cut and fixed in ice-cold acetone for 10 min followed by air drying for a further 10 min. Sections were blocked in protein blocking reagent (Lipshaw Immunon, Pittsburgh U.S.A.) for 10 min and then incubated with biotinylated primary antibody (1 mg/ml), for 30 min at room temperature (RT). All antibodies were biotinylated using the ECL™ protein biotinylation module (Amersham, Baulkham Hills, Australia), as per the manufacturer's instructions. After rinsing with PBS, sections were incubated with a streptavidin horseradish peroxidase complex for a further 30 min (Silenus, Melbourne, Australia). Following a final PBS wash the sections were exposed to 3-amino-9-ethylcarbozole (AEC) substrate (0.1 M acetic acid, 0.1 M sodium acetate, 0.02 M AEC (Sigma Chemical Co., St Louis, MO)) in the presence of hydrogen peroxide for 30 min. Sections were rinsed with water and counterstained with hematoxylin for 5 min and mounted.
as §2

xenograft A431 = assay: immunohistochemistry of xenograft sections; set-up: species or system human
Experimental: as §3, §2

DU145 xenografts = assay: established xenograft model; type: in vivo, nude mice; conditions: day 67; 1 mg i.p.
From the text: Xenografts were allowed to establish for 18 days before therapy commenced (3 times a week for 3 weeks on days indicated). At this time the average tumor volume was 90 mm^3 (FIG. 68D).

[5] = tested on: EGFR fragments displayed on yeast; assay: yeast surface display of EGFR fragments; type: binding, human
Experimental: as §1
Briefly, transformed colonies were grown at 30° C. in minimal media containing yeast nitrogen base, casein hydrolysate, dextrose, and phosphate buffer pH 7.4, on a shaking platform for approximately one day until an OD600 of 5-6 was reached. Yeast cells were then induced for protein display by transferring to minimal media containing galactose, and incubated with shaking at 30° C. for 24 h. Cultures were then stored at 4° C. until analysis. Raw ascites fluid containing the c-myc monoclonal antibody 9E10 was obtained from Covance (Richmond, CA). 1×10^6 yeast cells were washed with ice-cold FACS buffer (PBS containing 1 mg/ml BSA) and incubated with either anti-c-myc ascites (1:50 dilution), or human EGFR monoclonal antibody (10 μg/ml) in a final volume of 50 μl, for 1 hr at 4° C. The cells were then washed with ice cold FACS buffer and incubated with phycoerythrin-labelled anti-mouse IgG (1:25 dilution), in a final volume of 50 μl for 1 h at 4° C., protected from light. After washing the yeast cells with ice-cold FACS buffer, fluorescence data was obtained with a Coulter Epics XL flow cytometer (Beckman-Coulter), and analyzed with WinMDI cytometry software (J. Trotter, Scripps University). […]

[6] = target: wtEGFR-FLAG on Ba/F3 cells (human) (UniProt P00533); assay: FACS median fluorescence, Ba/F3 cells, reference M2 anti-FLAG
[7] = target: C271A/C283A-EGFR on Ba/F3 cells (human) (UniProt P00533); assay: FACS median fluorescence, Ba/F3 cells, average for four independent clones, reference M2
[8] = target: amplified / overexpressed wild-type EGFR (human) (UniProt P00533); assay: Scatchard analysis, 125I-labelled 528, A431 cells
[9] = target: amplified / overexpressed wild-type EGFR (human) (UniProt P00533); assay: IHC glioblastoma, amplified EGFR, no de2-7 EGFR
de2-7 EGFR (human) = de2-7 EGFR (human) (UniProt P00533); assay: IHC glioblastoma, amplified EGFR with de2-7 EGFR
[10] = target: T1, denatured soluble domain of the EGFR (sEGFR) (Homo sapiens, UniProt P00533); assay: competition ELISA; type: binding; conditions: after unlabeled blocking antibody
T1 construct: sEGFR is the recombinant extracellular domain (amino acids 1-621) of the wild-type EGFR; made in house; host or cells: CHO cells
Experimental: Briefly, the denatured soluble domain of the EGFR (sEGFR) was coated on to ELISA plates. The unlabeled 124 or 1133 antibodies were then added across the plate in increasing concentrations.

[11] = target: T2, EGFR peptide 287-302 (806 peptide epitope) (human, not fully specified (bridges); also: oxidized form in the crystals); assay: BIAcore, immobilised peptide, 200 nM antibody
T2 construct: Immobilised by amine, thiol or Pms-Ser coupling; oxidized form in the crystals
T2 peptide: CGADSYEMEEDGVRKC

xenograft U87MGΔEGFR = assay: immunohistochemistry of xenograft sections; set-up: species or system human
[12] = tested on: established A431 xenografts; assay: in vivo 806 therapy study; set-up: species or system BALB/c nude mice; conditions: 6 x 1 mg IP, versus PBS
Experimental: (§4) To establish xenografts, mice were injected subcutaneously into the right and left inguinal mammary line with 1×10^6 A431 […] cells or 1×10^6 U87MG.de2-7 glioma cells in 100 μl of PBS. Tumor volume (TV) was calculated by the formula [(length×width^2)/2] where length was the longest axis and width the measurement at right angles to length. […] Therapy was administered on days 6, 8, 11, 13, 15 and 18 for A431, and days 4, 6, 8, 11, 13 and 15 for the U87MG.de2-7 cell lines respectively. Mean±SEM tumor volumes until termination of the experiments due to ethical considerations of tumor burden are presented in FIG. 91 for the A431 xenograft until day 25, and in FIG. 92 for U87MG.de2-7 xenografts until day 31.

[13] = tested on: established U87MG.de2-7 xenografts; assay: in vivo 806 therapy study; set-up: species or system BALB/c nude mice; conditions: 6 x 1 mg IP, versus PBS
Experimental: as §4

mAb175 (antibody)
Kd [1]: 35 nM | Kd [2]: 154 nM | Kd [3]: 143 nM

COc1cc2ncnc(Nc3cccc(Cl)c3)c2cc1OC [AG1478, 4-(3-Chloroanilino)-6,7-dimethoxyquinazoline, reference compound]
mAb806 binding to EGFR in cell lysate (EGFR of A431 cells): significantly increased | tumor volume (A431 xenografts): significant reduction of tumor volume

mAb175: murine monoclonal antibody, SEQ ID NO:129 and SEQ ID NO:134
FACS binding (DU145 cells): bind to DU145 cells | reactivity with EGFR fragments (EGFR fragments): reacted with both the 274-501 and 282-501 EGFR fragments; also recorded: did not detect fragments commencing at amino acid 290 or 298; also recorded: a 274-501 EGFR fragment with the mAb806 epitope deleted (Δ287-302) was also negative for mAb175 binding | staining [4]: does not bind | immunohistochemical staining (xenograft U87MG (native)): does not stain | immunohistochemical staining (xenograft A431): stains | mean tumor volume (DU145 xenografts): 815 mm^3 | binding to EGFR fragments [5]: recognized the yeast fragment 273-621; also recorded: not to fragments 1-176, 1-294, 294-543, or 475-621; also recorded: binds to the denatured fragment of the 273-621

528 antibody
ratio of antibody binding mAb 528/M2 [6]: 1.37 | ratio of antibody binding mAb 528/M2 [7]: 1.08 | binding sites per cell (sites per cell) [8]: 2e+06 | percent of immunoreactive cells [9]: > 75% | percent of immunoreactive cells (de2-7 EGFR (human)): > 75%

B1: mAb1133 (antibody, mouse IgG2a, V domains shown)
VH: DVQLQGSGPSLVKPSQSLSLTCTVTGYSITSDYAWNWIRQFPGNKLEWMGYISYSGNTRYNPSLRSRISITRDTSKNQFFLQLNSVTTEDTATYYCATAGRGFPYWGQGTLVTVSA
VL: DILMTQSPSSMSVSLGDTVNITCHSSQDINSNIGWLQQKPGKSFKGLIYHGTNLDDGVPSRFSGSGSGADYSLTISSLESEDFADYYCVQYGQFPWTFGGGTKLEIKR
notes: Mouse IgG2a; variable domains only
Binding of biotin-labeled 806 [10]: None | Binding to mAb806 peptide (RU), maximal [11]: 800 RU | immunohistochemical staining (xenograft U87MGΔEGFR): pos. | immunohistochemical staining (xenograft A431): pos. (predominantly

B2: hu806: humanized (veneered) 806 antibody, SEQ ID NO:42 and SEQ ID NO:47 (antibody, V domains shown)
VH: MDWTWRILFLVAAATGVHSQVQLQESGPGLVKPSQTLSLTCTVSGYSISSDFAWNWIRQPPGKGLEWMGYISYSGNTRYQPSLKSRITISRDTSKNQFFLKLNSVTAADTATYYCVTAGRGFPYWGQGTLVTVSS
VL: MDWTWRILFLVAAATGVHSDIQMTQSPSSMSVSVGDRVTITCHSSQDINSNIGWLQQKPGKSFKGLIYHGTNLDDGVPSRFSGSGSGTDYTLTISSLQPEDFATYYCVQYAQFPWTFGGGTKLEIKR
xenograft growth [12]: marked reduction in A431 xenograft growth | xenograft growth [13]: significant reduction in tumor growth by day 20
